Measurements reported in patent US20230374071A1, “COMPOSITIONS FOR INDUCING URINARY VOIDING AND DEFECATION” (Dignify Therapeutics, LLC, priority 2020, published 2023).
Starred links: 1 amine or outer side, 2 acyl side, 3 side chain; linkers in the order of their positions; H or OH if unused. Non-standard residues stand in square brackets, D forms with d. No end group written: not given here. gc = gamma constrained Gly-(R-gamma-lactam)-Leu moiety, (S)-2-((R)-3-amino)-2-oxopyrrolidin-1-yl)-4-methylpentanoyl, between Val and the C-terminal residue, CC(C)C[C@@H](C(=O)[*:2])N1CC[C@@H](N[*:1])C1=O; Nle = CCCC[C@H](N)C(=O)O; βAla = NCCC(=O)O

Legend:
Assay in all cases: cell-based or functional assay
[1] = target: T1, human neurokinin 2 receptor (human, UniProt P21452 1-398)
T1 sequence (looked up): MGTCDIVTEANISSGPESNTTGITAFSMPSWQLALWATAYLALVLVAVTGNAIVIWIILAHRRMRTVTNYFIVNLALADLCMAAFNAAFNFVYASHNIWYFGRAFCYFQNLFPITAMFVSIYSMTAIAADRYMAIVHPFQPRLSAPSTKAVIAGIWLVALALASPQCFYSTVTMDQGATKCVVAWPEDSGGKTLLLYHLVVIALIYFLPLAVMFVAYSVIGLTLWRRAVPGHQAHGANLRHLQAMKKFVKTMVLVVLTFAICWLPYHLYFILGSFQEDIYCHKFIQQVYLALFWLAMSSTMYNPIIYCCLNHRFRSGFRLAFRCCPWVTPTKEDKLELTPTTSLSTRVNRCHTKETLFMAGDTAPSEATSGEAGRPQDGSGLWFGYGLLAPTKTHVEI

[2] = target: T2, human neurokinin 1 receptor (human, UniProt P25103 1-407)
[3] = target: T1, human neurokinin 2 receptor; remark: listed apart in the source
[4] = target: T2, human neurokinin 1 receptor; remark: listed apart in the source

T2 sequence (P25103 whole entry): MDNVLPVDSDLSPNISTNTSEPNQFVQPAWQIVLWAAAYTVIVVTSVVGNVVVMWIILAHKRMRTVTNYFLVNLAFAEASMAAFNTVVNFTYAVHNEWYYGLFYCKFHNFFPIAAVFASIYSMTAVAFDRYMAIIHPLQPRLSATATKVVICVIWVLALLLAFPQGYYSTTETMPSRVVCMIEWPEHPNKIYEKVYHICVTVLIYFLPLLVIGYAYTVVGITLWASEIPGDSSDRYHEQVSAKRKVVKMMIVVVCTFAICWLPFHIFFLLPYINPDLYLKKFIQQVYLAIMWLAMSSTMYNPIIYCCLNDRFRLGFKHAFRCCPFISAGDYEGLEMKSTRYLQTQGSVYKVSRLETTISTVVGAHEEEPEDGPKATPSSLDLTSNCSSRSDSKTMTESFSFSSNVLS

B1: Compound E (Asp-Arg-Phe-Val-gc-Met-NH2) (peptide)
peptide: DRFV[gc]M-NH2
modifications: N-terminus assumed
SMILES: CSCC[C@H](NC(=O)[C@H](CC(C)C)N1CC[C@@H](NC(=O)[C@@H](NC(=O)[C@H](Cc2ccccc2)NC(=O)[C@H](CCCNC(=N)N)NC(=O)[C@@H](N)CC(=O)O)C(C)C)C1=O)C(N)=O
With B1 the maximal calcium response [1] was ≥ 85 % maximal response compared to Neurokinin A, the maximal calcium response [2] was ≥ 85 % maximal response compared to Substance P and the NK2R/NK1R selectivity ratio [3] was 90 fold. For the same binder, the “hNK2R pEC50 (intracellular calcium mobilization, FLIPR, CHO cells)” value [3] was 9.71 and the “hNK1R pEC50 (intracellular calcium mobilization, FLIPR, CHO cells)” value [4] was 7.76.

B2: Compound J (Lys-Asp-Ser-Phe-Val-(β-Ala)-Leu-Nle-NH2) (peptide)
peptide: KDSFV[βAla]L[Nle]-NH2
modifications: N-terminus assumed
SMILES: CCCC[C@H](NC(=O)[C@H](CC(C)C)NC(=O)CCNC(=O)[C@@H](NC(=O)[C@H](Cc1ccccc1)NC(=O)[C@H](CO)NC(=O)[C@H](CC(=O)O)NC(=O)[C@@H](N)CCCCN)C(C)C)C(N)=O
With B2 the maximal calcium response [1] was ≥ 85 % maximal response compared to Neurokinin A, the maximal calcium response [2] was ≥ 85 % maximal response compared to Substance P and the NK2R/NK1R selectivity ratio [3] was 23 fold. For the same binder, the “hNK2R pEC50 (intracellular calcium mobilization, FLIPR, CHO cells)” value [3] was 7.88 and the “hNK1R pEC50 (intracellular calcium mobilization, FLIPR, CHO cells)” value [4] was 6.52.

B3: Compound F (Asp-Arg-Phe-Val-gc-Nle-NH2) (peptide)
peptide: DRFV[gc][Nle]-NH2
modifications: N-terminus assumed
SMILES: CCCC[C@H](NC(=O)[C@H](CC(C)C)N1CC[C@@H](NC(=O)[C@@H](NC(=O)[C@H](Cc2ccccc2)NC(=O)[C@H](CCCNC(=N)N)NC(=O)[C@@H](N)CC(=O)O)C(C)C)C1=O)C(N)=O
With B3 the maximal calcium response [1] was ≥ 85 % maximal response compared to Neurokinin A, the maximal calcium response [2] was ≥ 85 % maximal response compared to Substance P and the NK2R/NK1R selectivity ratio [3] was 93 fold. The “hNK2R pEC50 (intracellular calcium mobilization, FLIPR, CHO cells)” value [3] was 8.6 and the “hNK1R pEC50 (intracellular calcium mobilization, FLIPR, CHO cells)” value [4] was 6.63.

B4: Compound G (Lys-Asp-Ser-Phe-Val-gc-Nle-NH2) (peptide)
peptide: KDSFV[gc][Nle]-NH2
modifications: N-terminus assumed
SMILES: CCCC[C@H](NC(=O)[C@H](CC(C)C)N1CC[C@@H](NC(=O)[C@@H](NC(=O)[C@H](Cc2ccccc2)NC(=O)[C@H](CO)NC(=O)[C@H](CC(=O)O)NC(=O)[C@@H](N)CCCCN)C(C)C)C1=O)C(N)=O
In the case of B4, the maximal calcium response [1] is reported as ≥ 85 % maximal response compared to Neurokinin A, the maximal calcium response [2] is reported as ≥ 73 % maximal response compared to Substance P and the NK2R/NK1R selectivity ratio [3] is reported as 206 fold. For the same binder, the “hNK2R pEC50 (intracellular calcium mobilization, FLIPR, CHO cells)” value [3] was 8.11 and the “hNK1R pEC50 (intracellular calcium mobilization, FLIPR, CHO cells)” value [4] was 5.79.
